Experimental data from patent US12624112 (MABWELL SHANGHAI BIOSCIENCE, dated 2026).
Where a chain is given by its changes, count along the chain named. Where two headings read alike, the source gives them in different places.

T1: ST2 on the effector cells (KU812, KU812/NF-κB-1#, HUVEC, HMC-1) (human, UniProt Q01638 19-556)
T1 sequence (looked up): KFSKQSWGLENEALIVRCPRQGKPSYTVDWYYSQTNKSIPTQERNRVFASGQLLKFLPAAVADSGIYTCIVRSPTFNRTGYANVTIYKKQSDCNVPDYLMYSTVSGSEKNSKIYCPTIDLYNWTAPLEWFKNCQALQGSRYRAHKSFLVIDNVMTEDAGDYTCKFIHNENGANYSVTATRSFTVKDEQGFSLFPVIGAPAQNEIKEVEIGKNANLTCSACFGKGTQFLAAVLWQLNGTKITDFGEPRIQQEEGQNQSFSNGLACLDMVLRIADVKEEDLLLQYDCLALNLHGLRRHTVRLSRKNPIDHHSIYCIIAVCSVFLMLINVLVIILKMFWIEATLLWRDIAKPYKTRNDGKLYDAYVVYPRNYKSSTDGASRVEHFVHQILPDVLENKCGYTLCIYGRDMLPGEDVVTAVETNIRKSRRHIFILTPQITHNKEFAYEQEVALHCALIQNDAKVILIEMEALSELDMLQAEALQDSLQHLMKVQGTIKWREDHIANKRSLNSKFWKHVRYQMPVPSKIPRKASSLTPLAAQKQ

T2: Human ST2-his (human, UniProt Q01638-2 19-328, limits assumed)
T2 construct: Expressed in CHO-K1; The printed range starts at Met1; also called human ST2 fused with a 6-histidine tag at the C-terminus
T2 sequence: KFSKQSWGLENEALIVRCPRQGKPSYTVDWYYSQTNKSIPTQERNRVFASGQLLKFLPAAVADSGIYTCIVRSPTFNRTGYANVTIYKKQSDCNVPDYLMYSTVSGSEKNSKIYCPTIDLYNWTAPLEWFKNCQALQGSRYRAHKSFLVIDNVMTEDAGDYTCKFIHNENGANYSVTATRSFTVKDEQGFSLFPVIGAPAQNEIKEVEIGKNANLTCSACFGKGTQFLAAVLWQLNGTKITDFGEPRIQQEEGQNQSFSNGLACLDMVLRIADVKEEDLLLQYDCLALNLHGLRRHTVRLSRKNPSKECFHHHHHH

B1: 5888-153-H2L0 (antibody, human IgG4 S228P, kappa, V domains shown)
VH: QVQLVQSGAEVKKPGASVKVSCKASGYTFTDYELHWVRQAPGQGLEWMGTIDPETGDTVYNQKFKARVTMTADKSTSTAYMELSSLRSEDTAVYYCTRAFYNDYDEGFAYWGQGTLVTVSS
VL: EIVLTQSPATLSLSPGERATLSCSVSSSVSYMHWYQQKPGQAPRLLIYDTSKLASGIPARFSGSGSGTDFTLTISSLEPEDFAVYYCQQWNSSPLTFGGGTKVEIKR
B2: 5888-153-H2L1 (antibody, human IgG4 S228P, kappa, V domains shown)
VH: B1 VH
VL: B1 VL with L4M, L45R, F70Y, F82A
B3: 5888-153-H3L2 (antibody, human IgG4 S228P, kappa, V domains shown)
VH: B1 VH with E106D, G107A
VL: B1 VL with L4M, L45R, F70Y, F82A, S92T
notes: Humanized antibody
B4: 5888-379-H2L2 (antibody, human IgG4 S228P, kappa, V domains shown)
VH: QVQLVQSGAEVKKPGASVKVSCKASGYTFINYGMNWVRQAPGQRLEWMGWINTYIGEPTYGDNFKGRVTITRDTSASTAYMELSSLRSEDTAVYYCAREGDAFAYWGQGTLVTVSS
VL: DIVMTQSPDSLAVSLGERATINCKSSQSLLYSGNQNNYLAWYQQKPGQPPKLLIYGASTRESGVPDRFSGSGSGTDFTLTISSLQAEDVAVYYCQNDHSYPYTFGGGTKVEIKR
notes: Humanized antibody
B5: Control antibody CNTO7160 (antibody, human IgG4 S228P, kappa, V domains shown)
VH: EVQLLESGGGLVQPGGSLRLSCAASGFTFSIYDMIWVRQAPGKGLEWVSSIRGEGGGTYYADSVKGRFTISRDNSKNTLYLQMNSLRAEDTAVYYCARDPWSTEGSFFVLDYWGQGTLVTVSS
VL: EIVLTQSPATLSLSPGERATLSCRASQSVDDDLAWYQQKPGQAPRLLIYDASNRATGIPARFSGSGSGTDFTLTISSLEPEDFAVYYCQQYITAPLTFGQGTKVEIKR
notes: Known anti-ST2 control antibody

Experiments:
[1] = biological target: Human ST2-fc (human) (UniProt Q01638); experiment: competition ELISA, coated ST2-fc, competitor IL33-his
[2] = biological target: Human ST2-fc (human) (UniProt Q01638); experiment: competition ELISA: human ST2-fc coated, antibody titrated in a mixture with human IL33-his (blocked ligand), bound IL33-his detected with an anti-His secondary antibody, OD450-OD650 [continued), 9-5]
[3] = biological target: Human ST2-fc (human) (UniProt Q01638); experiment: competition ELISA: human ST2-fc coated, antibody titrated in a mixture with human IL33-his (blocked ligand), bound IL33-his detected with an anti-His secondary antibody, OD450-OD650 [continued), 9-7]
[4] = biological target: Human ST2-fc (human) (UniProt Q01638); experiment: competition ELISA: human ST2-fc coated, antibody titrated in a mixture with human IL33-his (blocked ligand), bound IL33-his detected with an anti-His secondary antibody, OD450-OD650 [continued), 9-4]
[5] = biological target: T1, ST2 on the effector cells (KU812, …); experiment: cell-based or functional assay
[6] = biological target: T1, ST2 on the effector cells (KU812, …); experiment: cell-based or functional assay; remark: listed apart in the source
[7] = biological target: T1, ST2 on the effector cells (KU812, …); experiment: cell-based or functional assay; remark: listed apart in the source
[8] = biological target: T1, ST2 on the effector cells (KU812, …); experiment: cell-based or functional assay; remark: listed apart in the source
[9] = biological target: T1, ST2 on the effector cells (KU812, …); experiment: cell-based or functional assay; remark: listed apart in the source
[10] = biological target: T1, ST2 on the effector cells (KU812, …); experiment: cell-based or functional assay; remark: listed apart in the source
[11] = biological target: Human ST2-fc (human) (UniProt Q01638); experiment: competition ELISA, coated ST2-fc, competitor IL33-his; remark: listed apart in the source
[12] = biological target: T2, Human ST2-his; experiment: SPR Biacore X100, ratio of kd at pH 5.5 to kd at pH 7.4
Experimental: (§1) The experiment on the interaction between the anti-human ST2 antibodies and human ST2-his was performed using Biacore X100.
(§2) Each anti-human ST2 antibody was diluted to 2 µg/mL and captured on the surface of a protein A chip for a capture time of 60 s. Following the antibody capture, a solution of human ST2-his (2-fold gradient dilution from a starting concentration of 20 nM, to obtain 6 concentrations in total) was injected. Association was monitored for 180 s and dissociation was monitored for 700 s, and the sensor surface was regenerated by injecting a solution of glycine at pH 2.0. Kinetic data were analyzed using a simple 1:1 binding model.

[13] = biological target: T2, Human ST2-his; experiment: SPR Biacore X100, antibody captured on protein A chip, human ST2-his injected, pH 7.4
Outline: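 Antibody (2 µg/mL) captured 60 s on protein A; human ST2-his injected at six 2-fold dilutions from 20 nM, association 180 s, dissociation 700 s. Kinetics fitted to 1:1 binding model; glycine pH 2.0 regeneration.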

[14] = biological target: T2, Human ST2-his; experiment: SPR Biacore X100, antibody captured on protein A chip, human ST2-his injected, dissociation at pH 5.5
Experimental: as §1, §2

[15] = biological target: T2, Human ST2-his; experiment: SPR Biacore X100, antibody captured on protein A chip, human ST2-his injected, pH 7.4; pH 7.4
Experimental: as §1, §2

Molecule | Maximum inhibition rate [1] [%] | IC50 (read off the curve) [4] [mg/L] | IC50, inhibition of KU812-IL5 production promoted by IL-33 (human IL33-his) [5] [mg/L] | Maximum inhibition rate, KU812-IL5 production by IL-33 [5] [%] | Relative activity compared with CNTO7160, KU812-IL5 production by IL-33 [5] [%] | IC50, inhibition of activation of KU812-NF-κB reporter gene by IL33 [6] [mg/L] | Maximum inhibition rate, KU812-NF-κB reporter gene [6] [%] | IC50, inhibition of KU812-IL5 production promoted by oxidized IL33 [7] [mg/L] | Maximum inhibition rate, KU812-IL5 production by oxidized IL33 [7] [%] | Relative activity, KU812-IL5 production by oxidized IL33 [7] [%] | IC50, inhibition of KU812-IL5 production promoted by reduced IL33 [8] [mg/L] | Maximum inhibition rate, KU812-IL5 production by reduced IL33 [8] [%] | Relative activity, KU812-IL5 production by reduced IL33 [8] [%] | IC50, inhibition of HUVEC-IL6 production promoted by IL33 [9] [mg/L] | kd ratio of pH 5.5/pH 7.4 [12] | koff [13] [s⁻¹] | kon [13] [M⁻¹ s⁻¹] | Kd [14] [nM] | koff [14] [s⁻¹] | kon [14] [M⁻¹ s⁻¹] | also measured
Control antibody CNTO7160 | 92.5 |  |  |  |  |  |  |  |  |  |  |  |  |  |  |  |  |  |  |  | IC50 (read off the curve) [2]: 1 mg/L; IC50 (read off the curve) [3]: 0.9 mg/L
B1 |  | 3 |  |  |  |  |  |  |  |  |  |  |  |  |  |  |  |  |  |  | 
B2 |  | 2 |  |  |  |  |  |  |  |  |  |  |  |  |  |  |  |  |  |  | 
B3 |  |  | 0.0755 | 94.2 | 142 | 0.0553 | 88.1 | 0.0173 | 101 | 127 | 0.522 | 87.2 | 281 | 3.69 | 1.43 | 0.000171 | 1.65e+06 | 0.131 | 0.000245 | 1.87e+06 | Relative activity compared with CNTO7160, KU812-NF-κB reporter gene [6]: 362%; Maximum inhibition rate, HUVEC-IL6 production by IL33 [9]: 91.8%; Relative activity, HUVEC-IL6 production by IL33 [9]: 73.9%; IC50, inhibition of HMC-1 IL8 production promoted by IL33 [10]: 0.0944 mg/L; Maximum inhibition rate, HMC-1 IL8 production by IL33 [10]: 83.3%; Relative activity, HMC-1 IL8 production by IL33 [10]: 107%; IC50 [11]: 0.828 mg/L; Maximum inhibition rate [11]: 93.7%; Relative activity compared with CNTO7160 [11]: 152%; Kd [13]: 0.104 nM
B4 | 86 |  | 0.0948 | 97.9 | 107 |  |  |  |  |  |  |  |  |  | 38.4 | 0.000702 | 1.36e+06 | 2.67 | 0.0269 | 1.01e+07 | IC50 [1]: 0.402 mg/L; Relative activity compared with CNTO7160 [1]: 219%; Kd [13]: 0.515 nM
B5 |  |  |  | 97.5 |  | 0.2 | 88.2 | 0.0221 | 98.9 | 100 | 1.47 | 97.3 | 100 | 2.73 | 1.53 | 0.000175 | 763000 | 0.395 | 0.000267 | 676000 | Maximum inhibition rate, HUVEC-IL6 production by IL33 [9]: 66.6%; Relative activity, HUVEC-IL6 production by IL33 [9]: 100%; IC50, inhibition of HMC-1 IL8 production promoted by IL33 [10]: 0.101 mg/L; Maximum inhibition rate, HMC-1 IL8 production by IL33 [10]: 82.3%; Kd [15]: 0.229 nM
